Details: Bacillus amyloliquefaciens, pH 6.3, Fluorescence, whole UniProt chain shown
[1] = 25 °C, GdnHCl, MES 450 mM, reversible: yes (100%)
[2] = Thermal, MES 50 mM, reversible: yes (>85%)

B1: Ribonuclease wild type, P00648 (protein)
chain: MMKMEGIALKKRLSWISVCLLVLVSAAGMLFSTAAKTETSSHKAHTEAQVINTFDGVADYLQTYHKLPDNYITKSEAQALGWVASKGNLADVAPGKSIGGDIFSNREGKLPGKSGRTWREADINYTSGFRNSDRILYSSDWLIYKTTDHYQTFTKIR
denaturant m value [1]: 4.51 kcal/mol/M
denaturant midpoint (higher = more stable) [1]: 1.97 M
unfolding free energy [1]: 8.88 kcal/mol
Tm [2]: 53.9 °C
unfolding enthalpy (van 't Hoff) [2]: 125 kcal/mol

Source: FireProtDB (doi:10.1021/bi00437a058)
